From patent publication US11402384B2 (Duke University, priority 2015, dated 2022)
Substitutions are numbered along the chain they refer to. In names and notes the source's numbering stands. Like-named read-outs stand apart in the source and are kept apart here.

B1: W8Y A: tsGBP2.13C.W8Y (SEQ ID NO: 39) Acrylodan conjugate (conjugate)
chain: MKLEIFSYWAGDCGPALEALIRLYKQKYPGVEVINATVTGGAGVNAKAVLKTRMLGGDPPDTFQVHAGQELIGTWVVADRMEDLTSLFRQEGWLQAFPKGLIDLLSYKGGIWSVPVNIHRSNVMWYIPAKLKEWGVTPPKTWAEFLATAQTLKRKGLEAPLALGENWTQQHLWESVALATLGADGWNNLWSGKLKFTDPKAVAVWETFGKVLDAANKDAAGLSWQQAVDRVVQGKAAFNIMGDWAAGYMSTTLKLKPGTDFAWTPSPGTSGIFMMLSDSFGLPKGAKNRQNAINWLKLVGSKEGQDTFNPLKGSIAARLDSDPAKYNAYGQSAMKDWKSNRIVGSLVHGAVAPESFMSQFGTVMEIFLQSRNPQAAANAAQAIANQVGLGRGGSHHHHHH
modifications: Acrylodan conjugate; tsGBP2.13C.W8Y (13C, 8Y double substitution mutant with signal peptide replaced with M and a GGSHHHHHH at C-terminus)
B2: Q64M A: tsGBP2.13C.Q64M (SEQ ID NO: 45) Acrylodan conjugate (conjugate)
chain: B1 chain with Y8W, Q64M
modifications: Acrylodan conjugate; tsGBP2.13C.Q64M (13C, 64M double substitution mutant with signal peptide replaced with M and a GGSHHHHHH at C-terminus)
B3: W9Y B: tsGBP2.13C.W9Y (SEQ ID NO: 42) Badan conjugate (conjugate)
chain: B1 chain with Y8W, W9Y
modifications: Badan conjugate; tsGBP2.13C.W9Y (13C, 9Y double substitution mutant with signal peptide replaced with M and a GGSHHHHHH at C-terminus)
B4: W9M B: tsGBP2.13C.W9M (SEQ ID NO: 41) Badan conjugate (conjugate)
chain: B1 chain with Y8W, W9M
modifications: Badan conjugate; tsGBP2.13C.W9M (13C 9M double substitution mutant with signal peptide replaced with M and a GGSHHHHHH at C-terminus)
B5: W244Y B: tsGBP2.13C.W244Y (SEQ ID NO: 49) Badan conjugate (conjugate)
chain: B1 chain with Y8W, W244Y
modifications: Badan conjugate; tsGBP2.13C.W244Y (13C, 244Y double substitution mutant with signal peptide replaced with M and a GGSHHHHHH at C-terminus)
B6: D278N B: tsGBP2.13C.D278N (SEQ ID NO: 50) Badan conjugate (conjugate)
chain: B1 chain with Y8W, D278N
modifications: Badan conjugate; tsGBP2.13C.D278N (13C, 278N double substitution mutant with signal peptide replaced with M and a GGSHHHHHH at C-terminus)
B7: W9F A: tsGBP2.13C.W9F (SEQ ID NO: 40) Acrylodan conjugate (conjugate)
chain: B1 chain with Y8W, W9F
modifications: Acrylodan conjugate; tsGBP2.13C.W9F (13C 9F double substitution mutant with signal peptide replaced with M and a GGSHHHHHH at C-terminus)
B8: W9F B: tsGBP2.13C.W9F (SEQ ID NO: 40) Badan conjugate (conjugate)
chain: B1 chain with Y8W, W9F
modifications: Badan conjugate; tsGBP2.13C.W9F (13C 9F double substitution mutant with signal peptide replaced with M and a GGSHHHHHH at C-terminus)
B9: H66Q A: tsGBP2.13C.H66Q (SEQ ID NO: 46) Acrylodan conjugate (conjugate)
chain: B1 chain with Y8W, H66Q
modifications: Acrylodan conjugate; tsGBP2.13C.H66Q (13C, 66Q double substitution mutant with signal peptide replaced with M and a GGSHHHHHH at C-terminus)
B10: W244M A: tsGBP2.13C.W244M (SEQ ID NO: 47) Acrylodan conjugate (conjugate)
chain: B1 chain with Y8W, W244M
modifications: Acrylodan conjugate; tsGBP2.13C.W244M (13C, 244M double substitution mutant with signal peptide replaced with M and a GGSHHHHHH at C-terminus)
B11: D278S B: tsGBP2.13C.D278S (SEQ ID NO: 51) Badan conjugate (conjugate)
chain: B1 chain with Y8W, D278S
modifications: Badan conjugate; tsGBP2.13C.D278S (13C, 278S double substitution mutant with signal peptide replaced with M and a GGSHHHHHH at C-terminus)
B12: D278N A: tsGBP2.13C.D278N (SEQ ID NO: 50) Acrylodan conjugate (conjugate)
chain: B1 chain with Y8W, D278N
modifications: Acrylodan conjugate; tsGBP2.13C.D278N (13C, 278N double substitution mutant with signal peptide replaced with M and a GGSHHHHHH at C-terminus)
B13: W244Y A: tsGBP2.13C.W244Y (SEQ ID NO: 49) Acrylodan conjugate (conjugate)
chain: B1 chain with Y8W, W244Y
modifications: Acrylodan conjugate; tsGBP2.13C.W244Y (13C, 244Y double substitution mutant with signal peptide replaced with M and a GGSHHHHHH at C-terminus)
B14: Q64M B: tsGBP2.13C.Q64M (SEQ ID NO: 45) Badan conjugate (conjugate)
chain: B1 chain with Y8W, Q64M
modifications: Badan conjugate; tsGBP2.13C.Q64M (13C, 64M double substitution mutant with signal peptide replaced with M and a GGSHHHHHH at C-terminus)
B15: W8Y B: tsGBP2.13C.W8Y (SEQ ID NO: 39) Badan conjugate (conjugate)
chain: B1 chain
modifications: Badan conjugate; tsGBP2.13C.W8Y (13C, 8Y double substitution mutant with signal peptide replaced with M and a GGSHHHHHH at C-terminus)
B16: W9M A: tsGBP2.13C.W9M (SEQ ID NO: 41) Acrylodan conjugate (conjugate)
chain: B1 chain with Y8W, W9M
modifications: Acrylodan conjugate; tsGBP2.13C.W9M (13C 9M double substitution mutant with signal peptide replaced with M and a GGSHHHHHH at C-terminus)
B17: W244M B: tsGBP2.13C.W244M (SEQ ID NO: 47) Badan conjugate (conjugate)
chain: B1 chain with Y8W, W244M
modifications: Badan conjugate; tsGBP2.13C.W244M (13C, 244M double substitution mutant with signal peptide replaced with M and a GGSHHHHHH at C-terminus)
B18: H66Q B: tsGBP2.13C.H66Q (SEQ ID NO: 46) Badan conjugate (conjugate)
chain: B1 chain with Y8W, H66Q
modifications: Badan conjugate; tsGBP2.13C.H66Q (13C, 66Q double substitution mutant with signal peptide replaced with M and a GGSHHHHHH at C-terminus)
B19: D278S A: tsGBP2.13C.D278S (SEQ ID NO: 51) Acrylodan conjugate (conjugate)
chain: B1 chain with Y8W, D278S
modifications: Acrylodan conjugate; tsGBP2.13C.D278S (13C, 278S double substitution mutant with signal peptide replaced with M and a GGSHHHHHH at C-terminus)

Test: Ratiometric fluorescence glucose titration of fluorescent conjugates
Type: binding
Set-up: key to Shape (fluorescence response to glucose) / Change (fluorescence response to glucose): m, monochromatic; d, dichromatic (i.e. spectral shape change); 0, no change
Details: tsGBP 13C affinity mutants, Acrylodan or Badan conjugates
Method in brief: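 Single-cysteine glucose-binding protein mutants labelled site-specifically with thiol-reactive environmentally sensitive fluorophores; emission spectra recorded during glucose titration to detect ligand-mediated intensity and spectral-shape changes for ratiometric read-out. Temperature- and ligand-dependent fluorescence landscapes acquired in 1K steps; binding fitted to single-site fractional saturation.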

[1] = read-out: Glucose affinity ^appKd
[2] = read-out: Glucose affinity ^trueKd

| Molecule | Change (fluorescence response to glucose) | Kd [1] [mM] | Kd [2] [mM] |
| --- | --- | --- | --- |
| B1 | m/d^c | – | – |
| B2 | m/d | – | – |
| B3 | m | – | – |
| B4 | m^c | – | – |
| B5 | – | 4.1 | 3.8 |
| B6 | m/d | 99 | – |
| B7 | m | – | – |
| B8 | 0 | – | – |
| B9 | – | ~20 | ~7 |
| B10 | – | ~40 | ~20 |
| B11 | m/d | 81 | 91 |
| B12 | – | ~100 | ~100 |
| B13 | – | 5.6 | 7.8 |
| B14 | m | – | – |
| B15 | 0 | – | – |
| B16 | m | – | – |
| B17 | – | ~5 | ~7 |
| B18 | m | ~0.1 | ~0.09 |
| B19 | m/d | – | – |
